Drawing on patent US20240197828A1, “Chimeric molecule to treat sepsis and other inflammatory conditions” (THE FEINSTEIN INSTITUTES FOR MEDICAL RESEARCH, priority 2022, published 2024), this text covers Kd for one molecule.

The target of this assay is T1, rmCIRP (Mus musculus, UniProt P60824).
T1 construct: purchased Cubasio Technology LLC CSB-EP613483He0
T1 sequence (P60824 1-172): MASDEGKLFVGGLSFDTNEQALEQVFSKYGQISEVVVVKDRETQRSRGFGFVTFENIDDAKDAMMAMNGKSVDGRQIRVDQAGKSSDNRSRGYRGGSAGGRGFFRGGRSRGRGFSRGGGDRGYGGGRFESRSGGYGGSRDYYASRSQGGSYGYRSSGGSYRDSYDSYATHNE
Description: Surface plasmon resonance (Biacore/OpenSPR) binding to rmCIRP. On the set-up: species or system murine. The note with it: rmCIRP immobilized, rmMFG-E8 analyte 15.7 to 250 nM, DPBS with Ca/Mg, 1% BSA, pH 7.4; read-out: equilibrium dissociation KD between rmCIRP and rmMFG-E8. From the text: Computational modeling was used to determine the likely domain of MFG-E8's binding to eCIRP. The known amino acid (AA) sequence of this domain was used to develop and test potential therapeutic peptides. An MFG-E8 derived oligopeptide, MOP3, was developed based on 15 AA from MFG-E8 discoidin 2 domain (mimicking MFG-E8's C-terminal) and tagged with the 3 AA, RGD, (mimicking MFG-E8's binding capacity for the integrin receptor at the N-terminal). Binding of MOP3 to CIRP was quantified using Surface Plasmon Resonance (SPR) analysis. Macrophages (RAW264.7 cells) were treated with FITC-recombinant mouse (rm)-CIRP or co-incubated MOP3 and FITC-rmCIRP with and without a. Br-integrin Ab. After 1 h, cells were fixed and analyzed for intracellular FITC-rmCIRP by flow cytometry. Macrophages were stimulated with rmCIRP or co-incubated mixture of MOP3 and rmCIRP. After 4 h, cell culture supernatants were analyzed for inflammatory cytokine, TNFα. […]
To examine the direct interaction between rmCIRP and rmMFG-E8, surface plasmon resonance (SPR), OpenSPR (Nicoya), was performed between rmCIRP and rmMFG-E8. rmCIRP was immobilized on carboxyl sensor and rmMFG-E8 was injected as an analyte in concentrations of 15.7 nM to 250 nM. […] To evaluate binding, the analyte was injected into flow cell-1 and flow cell-2 and increasing concentrations and real-time interaction data were analyzed by TraceDrawer (Nicoya). […]
For orientation: In SPR one partner is held on a chip, and binding of the other changes the refractive index at the surface.

B1: milk fat globule-epidermal growth factor—factor VIII (protein, listed as Mus musculus)
chain: MQVSRVLAALCGMLLCASGLFAASGDFCDSSLCLNGGTCLTGQDNDIYCLCPEGFTGLVCNETERGPCSPNPCYNDAKCLVTLDTQRGDIFTEYICQCPVGYSGIHCETETNYYNLDGEYMFTTAVPNTAVPTPAPTPDLSNNLASRCSTQLGMEGGAIADSQISASSVYMGFMGLQRWGPELARLYRTGIVNAWTASNYDSKPWIQVNLLRKMRVSGVMTQGASRAGRAEYLKTFKVAYSLDGRKFEFIQDESGGDKEFLGNLDNNSLKVNMFNPTLEAQYIKLYPVSCHRGCTLRFELLGCELHGCSEPLGLKNNTIPDSQMSASSSYKTWNLRAFGWYPHLGRLDNQGKINAWTAQSNSAKEWLQVDLGTQRQVTGIITQGARDFGHIQYVASYKVAHSDDGVQWTVYEEQGSSKVFQGNLDNNSHKKNIFEKPFMARYVRVLPVSWHNRITLRLELLGC
What is called Kd is the free concentration of one partner at which half of the binding sites on the other are occupied at equilibrium, for simple one-to-one binding. B1: the Kd amounted to 200 nM.
